Experimental data published in patent US20240317852A1 (Molecular Partners, published 2024).

T1: biotinylated splice variant of the extracellular domain of human CD33 (residues 140-259, constant domain … (human, UniProt P20138 140-259, biotinylated with BirA-GST (Avi tag)))
T1 construct: Bought from Evitria; a second Fc chain may be present, not described; also called splice variant CD33; spliced variant; not shown: C-terminal Fc tag and Avi tag
T1 chain: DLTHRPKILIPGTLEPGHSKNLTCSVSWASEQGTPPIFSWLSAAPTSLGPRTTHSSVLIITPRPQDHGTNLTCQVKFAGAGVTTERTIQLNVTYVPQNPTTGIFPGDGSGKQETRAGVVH

B1: DARPin® protein #7 in TCE format (formatted with a CD3-specific ankyrin repeat domain) (designed binder)
chain: MRGSHHHHHHGSDLGLKLLRAAYDGQDDEVRILLAAGADVNAKDWQGFTPLHYAAVLGHLEIVEVLLKAGADVNAKDQEGATPLHLAALHGHLEIVEVLLKAGADVNAQDESGWTPADLAAKWGHEDIAEVLQKAA
notes: Crude extract HTRF construct also carried a C-terminal Flag tag; not shown: which one,
B2: DARPin® protein #1 in TCE format (formatted with a CD3-specific ankyrin repeat domain) (designed binder)
chain: MRGSHHHHHHGSDLGWKLLLAASRGQDDEVRILLAAGADVNAKDIDEGYTPLHIAAYYGHLEIVEVLLKAGADVNAKDRYGKTPLHLAAISGHEDIAEVLLKAGADVNAQDDKGDTPADLAADYGHEDIAEVLQKAA
notes: not shown: which one,
B3: DARPin® protein #8 in TCE format (formatted with a CD3-specific ankyrin repeat domain) (designed binder)
chain: MRGSHHHHHHGSDLGWKLLSAATLGQDDEVRILLAAGADVNAKDEWGKTPLHWAASTGHLEIVEVLLKAGADVNAKDLWGHTPLHEAAAKGHLEIVEVLLKAGADGNAQDNIGDTPADLAAYQGHEDIAEVLQKAA
notes: as for B1
B4: DARPin® protein #3 in TCE format (formatted with a CD3-specific ankyrin repeat domain) (designed binder)
chain: MRGSHHHHHHGSDLGVKLLRAAFHGQDDEVRILLAAGADVNAKDTDGETPLHYAAQFGHLEIVEVLLKAGADVNAKDAYGATPLHWAAWHGHLEIVEVLLKAGADVNAQDVSGATPADLAAKVGHEDIAEVLQKAA
notes: as for B1
B5: DARPin® protein #15 in TCE format (formatted with a CD3-specific ankyrin repeat domain) (designed binder)
chain: MRGSHHHHHHGSDLGKKLLQAARAGQLDEVRELLKAGADVNAKDLIGWTPLHLAAHYGHLEIVEVLLKAGADVNAKDAQGWTPLHIAAWEGHLEIVEVLLKAGADVNAKDWTGETPLHLAAFEGHLEIVEVLLKAGADVNAQDKSGKTPADLAARAGHQDIAEVLQKAA
notes: as for B1
B6: DARPin® protein #5 in TCE format (formatted with a CD3-specific ankyrin repeat domain) (designed binder)
chain: MRGSHHHHHHGSDLSKKLLQAARAGQLDEVRELLKAGADVNAKDQIGQTPLHLAAQSGHLEIVEVLLKAGADVNAKDTEGWTPLHVAAWEGHLEIVEVLLKAGADVNAKDWTGETPLHLAAYQGHLEIVEVLLKAGADVNAQDKSGKTPADLAARAGHQDIAEVLQKAA
notes: as for B1
B7: DARPin® protein #14 in TCE format (formatted with a CD3-specific ankyrin repeat domain) (designed binder)
chain: MRGSHHHHHHGSDLGWKLLNAAIAGQDDEVRILLAAGADVNAKDTEYGWTPLHIAASDGHLEIVEVLLKAGADVNAKDYAGSTPLHAAAFVGHLEIVEVLLKAGADVNAQDHQGQTPADLAAQQGHVDIAEVLQKAA
notes: as for B1
B8: DARPin® protein #16 in TCE format (formatted with a CD3-specific ankyrin repeat domain) (designed binder)
chain: MRGSHHHHHHGSDLGKKLLQAARAGQLDEVRELLKAGADVNAKDHQGETPLHLAASQGHLEIVEVLLKAGADVNAKDLAGYTPLHLAAWTGHLEIVEVLLKAGADVNAKDQWGRTPLHIAAASGHLEIVEVLLKAGADVNAQDKSGKTPADLAARAGHQDIAEVLQKAA
notes: as for B1
B9: DARPin® protein #1, monovalent CD33 specific binding protein (designed binder)
chain: MRGSHHHHHHGSDLGWKLLLAASRGQDDEVRILLAAGADVNAKDIDEGYTPLHIAAYYGHLEIVEVLLKAGADVNAKDRYGKTPLHLAAISGHEDIAEVLLKAGADVNAQDDKGDTPADLAADYGHEDIAEVLQKAA
notes: Crude extract in the HTRF; also called DARPin® protein #91 [sic]
B10: DARPin® protein #14, monovalent CD33 specific binding protein (designed binder)
chain: MRGSHHHHHHGSDLGWKLLNAAIAGQDDEVRILLAAGADVNAKDTEYGWTPLHIAASDGHLEIVEVLLKAGADVNAKDYAGSTPLHAAAFVGHLEIVEVLLKAGADVNAQDHQGQTPADLAAQQGHVDIAEVLQKAA
notes: Crude extract in the HTRF
B11: DARPin® protein #9 in TCE format (formatted with a CD3-specific ankyrin repeat domain) (designed binder)
chain: MRGSHHHHHHGSDLGYKLLWAASAGQDDEVRILLAAGADVNAKDKDGATPLHFAAAKGHLEIVEVLLKAGADVNAKDNRGATPLHYVAAASGHLEIVEVLLKAGADVNAQDEWGNTPADLAAIYGHGDIAEVLQKAA
notes: as for B1

Target: T1, biotinylated splice variant of the …
Assay: SPR (ProteOn XPR36), biotinylated splice variant CD33 on NLC chip

Q: Does B1 bind?
A: Result: no binding (tested: 50 nM)

Q: Does B2 bind?
A: Result: no binding (tested: 50 nM)

Q: Does B3 bind?
A: Result: no binding (tested: 50 nM)

Q: Does B4 bind?
A: Result: no binding (tested: 50 nM)

Q: Does B5 bind?
A: Result: no binding (tested: 50 nM)

Q: Does B6 bind?
A: Result: no binding (tested: 50 nM)

Q: Does B7 bind?
A: Result: no binding (tested: 50 nM)

Q: Does B8 bind?
A: Result: no binding (tested: 50 nM)

Target: T1, biotinylated splice variant of the …
Assay: HTRF, 6 nM biotinylated hCD33-C2-Fc(kih)-Avi, Strep-Tb and anti-6His-d2
Protocol: First, a binding experiment has been performed against full-length (V/C2 domains) and truncated CD33 (C2 domain) by HTRF, using crude extracts of the three CD33-specific binding proteins DARPin® protein #1. DARPin® protein #9 and DARPin® protein #14. Binding to the CD33 target was detected using Strep-Tb and anti-His-D2 HTRF reagents. In brief, crude extract of DARPi® protein #1, DARPin® protein #9 and DARPin® protein #14 was diluted 1:250 (final 1:1000) with PBSTB and added into a 384-well plate (PerkinElmer, 6008280). Then, the biotinylated target_hCD33-Fc(kih)-Avi (full-length CD33; purchased from Evitria) and hCD33-C2-Fc(kih)-Avi (truncated CD33; purchased from Evitria) respectively was diluted to 8 nM (final 6 nM) and mixed with the HTRF reagents Mab Anti-6His-d2 and Strep-Tb, both 1:200 diluted (final 1:400). As depicted in FIG. 5, all three CD33 specific binding proteins DARPin® protein #1. DARPin® protein #9 and DARPin® protein #14 show binding to the full-length CD33 but only DARPin® protein #9 binds to the truncated CD33 target.

Q: Does B9 bind?
A: Result: no binding

Q: Does B10 bind?
A: Result: no binding

Target: T1, biotinylated splice variant of the …
Assay: SPR (ProteOn XPR36), biotinylated splice variant CD33 on NLC chip, DARPin at 50 nM, single trace

Q: B11 was tested. Which Kd did it give?
A: The Kd was 1.9 nM.
